Experimental data taken from publication PMC9254666.

Target: p53 (Homo sapiens), P04637
Test: ELISA
Conditions: remark: other sources report otherwise

p53 (Homo sapiens), P04637, sequence (P04637 whole entry): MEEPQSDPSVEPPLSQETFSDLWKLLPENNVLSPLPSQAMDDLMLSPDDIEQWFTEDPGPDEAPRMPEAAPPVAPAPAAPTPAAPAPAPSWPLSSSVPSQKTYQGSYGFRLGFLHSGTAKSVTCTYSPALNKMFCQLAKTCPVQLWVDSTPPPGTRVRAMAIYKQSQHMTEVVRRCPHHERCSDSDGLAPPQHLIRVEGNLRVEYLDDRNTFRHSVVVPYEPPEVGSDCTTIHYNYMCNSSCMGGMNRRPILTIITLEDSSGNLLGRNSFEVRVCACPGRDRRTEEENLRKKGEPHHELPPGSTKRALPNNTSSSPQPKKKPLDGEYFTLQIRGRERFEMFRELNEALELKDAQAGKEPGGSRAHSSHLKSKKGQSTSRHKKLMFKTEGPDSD

B1: HDMX, O15151 (protein)
chain: MTSFSTSAQCSTSDSACRISPGQINQVRPKLPLLKILHAAGAQGEMFTVKEVMHYLGQYIMVKQLYDQQEQHMVYCGGDLLGELLGRQSFSVKDPSPLYDMLRKNLVTLATATTDAAQTLALAQDHSMDIPSQDQLKQSAEESSTSRKRTTEDDIPTLPTSEHKCIHSREDEDLIENLAQDETSRLDLGFEEWDVAGLPWWFLGNLRSNYTPRSNGSTDLQTNQDVGTAIVSDTTDDLWFLNESVSEQLGVGIKVEAADTEQTSEEVGKVSDKKVIEVGKNDDLEDSKSLSDDTDVEVTSEDEWQCTECKKFNSPSKRYCFRCWALRKDWYSDCSKLTHSLSTSDITAIPEKENEGNDVPDCRRTISAPVVRPKDAYIKKENSKLFDPCNSVEFLDLAHSSESQETISSMGEQLDNLSEQRTDTENMEDCQNLLKPCSLCEKRPRDGNIIHGRTGHLVTCFHCARRLKKAGASCPICKKEIQLVIKVFIA
B1 gave a Kd of 4.4 nM.
